Experimental findings from patent US20160083711 are described below.

The series concerns the target T1, fluorogenic peptide (MCA)Lys-Lys-Pro-Ala-Glu-Phe-Phe-Ala-Leu-Lys(DNP).
T1 chain: KKPAEFFALK

B1: proCardosinB lacking the PSI region (pCBΔPSI) (protein)
chain: MVSNGGLLRVGLKKRKVDRLDQLRAHGVHMLGNARKDFGFRRTLRDSGSGIVALTNDRDTAYYGEIGIGTPPQNFAVIFDTGSSDLWVPSTKCDTSLACVIHPRYDSGDSSTYKGNGTTASIQYGTGAIVGFYSQDSVEVGDLVVEHQDFIETTEEDDTVFLKSEFDGILGLGFQEISAGKAVPVWYNMVNQGLVEEAVFSFWLNRNVDEEEGGELVFGGVDPNHFRGNHTYVPVTRKGYWQFEMGDVLIGDKSSGFCAGGCAAIADSGTSFFAGPTAIITQINQAIGAKGGGGSAESIVDCNGISSMPNIAFTIGSKLFEVTPEQYIYKVGEGEAATCISGFTALDIMSPQGPIWILGDMFMGPYHTVFDYGKLRVGFAEAV
B1: the Km worked out at 8.7 µM, the VMax amounted to 2.15e-05 µmol/s, the catalytic constant (kcat) came to 36.5 s⁻¹ and the specificity constant (kcat/Km) was found to be 4.2e+06 M⁻¹ s⁻¹.
